This passage reports percent of parent results from PMC3900104.

The labels stand for the following.
B1: Myc-tagged DISC1, in COS7 [human] / FLAG-tagged TRAK1 (trafficking-protein-Kinesin-binding-1), aa 2-953, in COS7 [human] (parent)
chain 1: MPGGGPQGAPAAAGGGGVSHRAGSRDCLPPAACFRRRRLARRPGYMRSSTGPGIGFLSPAVGTLFRFPGGVSGEESHHSESRARQCGLDSRGLLVRSPVSKSAAAPTVTSVRGTSAHFGIQLRGGTRLPDRLSWPCGPGSAGWQQEFAAMDSSETLDASWEAACSDGARRVRAAGSLPSAELSSNSCSPGCGPEVPPTPPGSHSAFTSSFSFIRLSLGSAGERGEAEGCPPSREAESHCQSPQEMGAKAASLDGPHEDPRCLSRPFSLLATRVSADLAQAARNSSRPERDMHSLPDMDPGSSSSLDPSLAGCGGDGSSGSGDAHSWDTLLRKWEPVLRDCLLRNRRQMEVISLRLKLQKLQEDAVENDDYDKAETLQQRLEDLEQEKISLHFQLPSRQPALSSFLGHLAAQVQAALRRGATQQASGDDTHTPLRMEPRLLEPTAQDSLHVSITRRDWLLQEKQQLQKEIEALQARMFVLEAKDQQLRREIEEQEQQLQWQGCDLTPLVGQLSLGQLQEVSKALQDTLASAGQIPFHAEPPETIRSLQERIKSLNLSLKEITTKVCMSEKFCSTLRKKVNDIETQLPALLEAKMHAISGNHFWTAKDLTEEIRSLTSEREGLEGLLSKLLVLSSRNVKKLGSVKEDYNRLRREVEHQETAYETSVKENTMKYMETLKNKLCSCKCPLLGKVWEADLEACRLLIQSLQLQEARGSLSVEDERQMDDLEGAAPPIPPRLHSEDKRKTPLKVLEEWKTHLIPSLHCAGGEQKEESYILSAELGEKCEDIGKKLLYLEDQLHTAIHSHDEDLIQSLRRELQMVKETLQAMILQLQPAKEAGEREAAASCMTAGVHEAQA
chain 2: ALVFQFGQPVRAQPLPGLCHGKLIRTNACDVCNSTDLPEVEIISLLEEQLPHYKLRADTIYGYDHDDWLHTPLISPDANIDLTTEQIEETLKYFLLCAERVGQMTKTYNDIDAVTRLLEEKERDLELAARIGQSLLKKNKTLTERNELLEEQVEHIREEVSQLRHELSMKDELLQFYTSAAEESEPESVCSTPLKRNESSSSVQNYFHLDSLQKKLKDLEEENVVLRSEASQLKTETITYEEKEQQLVNDCVKELRDANVQIASISEELAKKTEDAARQQEEITHLLSQIVDLQKKAKACAVENEELVQHLGAAKDAQRQLTAELRELEDKYAECMEMLHEAQEELKNLRNKTMPNTTSRRYHSLGLFPMDSLAAEIEGTMRKELQLEEAESPDITHQKRVFETVRNINQVVKQRSLTPSPMNIPGSNQSSAMNSLLSSCVSTPRSSFYGSDIGNVVLDNKTNSIILETEAADLGNDERSKKPGTPGTPGSHDLETALRRLSLRRENYLSERRFFEEEQERKLQELAEKGELRSGSLTPTESIMSLGTHSRFSEFTGFSGMSFSSRSYLPEKLQIVKPLEGSATLHHWQQLAQPHLGGILDPRPGVVTKGFRTLDVDLDEVYCLNDFEEDDTGDHISLPRLATSTPVQHPETSAHHPGKCMSQTNSTFTFTTCRILHPSDELTRVTPSLNSAPTPACGSTSHLKSTPVATPCTPRRLSLAESFTNTRESTTTMSTSLGLVWLLKERGISAAVYDPQSWDRAGRGSLLHSYTPKMAVIPSTPPNSPMQTPTSSPPSFEFKCTSPPYDNFLASKPASSILREVREKNVRSSESQTDVSVSNLNLVDKVRRFGVAKVVNSGRAHVPTLTEEQGPLLCGPPGPAPALVPRGLVPEGLPLRCPTVTSAIGGLQLNSGIRRNRSFPTMVGSSMQMKAPVTLTSGILMGAKLSKQTSLR

This assay covers variants of B1. Nature of the assay: co-immunoprecipitation (IP with Myc antibody, WB anti-FLAG), quantified. To be noted: with FLAG-tagged TRAK1 (trafficking-protein-Kinesin-binding-1), COS7 cells, n = 3 independent transfections, parent: 100, read off a plot.
Turning to chain 1 R35A R36A R37A R38A R41A R42A R47A, the percent of parent is 43 % of DISC1.
